According to patent US6107069A, “Recombinant kynurenine-3-hydroxylase enzyme and process for its preparation” (priority 1996, dated 2000):

Assays:
[1] = Activity of recombinant kyn-3-OHase expressed in E. coli (conversion of L-kyn to 3-OH-Kyn); assay type: biochemical, human; conditions: cells induced 2 h at 37° C. with 1 mM IPTG; 500 μM L-kyn, 1 hour at 37° C.
Method: Recombinant kyn-3-OHase activity measured in cells grown at 37° C. until the OD600 reached 0.6, induced for 2 hours at 37° C. adding 1 mM IPTG was about 10 nmol/h·mg protein, enzymatic activity of uninduced cells in the same conditions was less than 5% (homogenates incubated for 1 hour at 37° C. with 500 μM L-kyn; see Example 5c).

[2] = Rat kyn-3-OHase activity expressed in X. laevis oocytes (conversion of L-kyn to 3-OH-Kyn); assay type: biochemical
Method: Individual oocytes of stages were obtained by gentle agitation in ND solution plus 1-2mg/ml collagenase for 60-90 min. They were then maintained at 18° C. in ND solution enriched with 1.8 mM CaCl2 and 20 mg/l gentamycin. Oocytes of stages 5 and 6 were injected 24 hours later with 50 nl RNA or water (N. Dascal and I. Lotan 1992. Methods in Mol. Biol. 13: 205-225).
Oocytes were injected with a Drummond Nanoject microdispenser. To avoid accidental injection into the nucleus, the needle was inserted close to the equator or in the vegetal (light) half of the oocytes. 1-3 days after injection the oocytes were assayed for kyn-3-OHase.
Plasmid DNA was isolated by standard procedures (alkaline lysis followed by a purification on Qiagen resin; Kontron Zurich). Plasmids were linearized with Not I and used for in vitro synthesis and capping of cRNA using T7 RNA polymerase (Stratagene) and following the supplier's instructions. Initially the library was divided into 25 pools of ~2000 colonies; cRNA obtained transcribing the insert of each pool of colonies was injected in the oocytes and screened for the expressed kyn-3-Ohase activity (See Example 1c for the methods). The positive pool identified for its kyn-3-OHase expressed activity (175 pmoles/h/mg protein: about 30 fold higher than that induced by the injection of total kidney poly (A)^+ RNA) was then split into several sub-pools and assayed with the same procedure.
Xenopus l. oocytes were first injected with 25 ng of poly(A)^+ RNA isolated from rat kidney.
Increasing doses (range 0.1-25 ng) of cRNA, obtained from the positive clone, were injected into oocytes which were then tested for kyn-3-OHase activity in the presence of 100 mM of L-kyn. A linear dose-dependent effect was observed up to 5 ng cRNA/oocyte. At this dose the kyn-3-OHase activity was 35.7 nmoles/h/mg protein. No further increase of the activity was measured when higher cRNA doses were injected.

[3] = purified from rat liver (Nisimoto 1975); cited from earlier work
[4] = 5 steps purification from rat liver (Nisimoto 1975); cited from earlier work
[5] = last round of library screening, cRNA-injected oocytes

B1: Recombinant kyn-3-OHase: human kynurenine-3-hydroxylase, deduced protein of 486 amino acid residues, expressed in E. coli (protein, UniProt O15229 1-486, looked up)
Kynurenine 3-monooxygenase: MDSSVIQRKKVAVIGGGLVGSLQACFLAKRNFQIDVYEAREDTRVATFTRGRSINLALSHRGRQALKAVGLEDQIVSQGIPMRARMIHSLSGKKSAIPYGTKSQYILSVSRENLNKDLLTAAEKYPNVKMHFNHRLLKCNPEEGMITVLGSDKVPKDVTCDLIVGCDGAYSTVRSHLMKKPRFDYSQQYIPHGYMELTIPPKNGDYAMEPNYLHIWPRNTFMMIALPNMNKSFTCTLFMPFEEFEKLLTSNDVVDFFQKYFPDAIPLIGEKLLVQDFFLLPAQPMISVKCSSFHFKSHCVLLGDAAHAIVPFFGQGMNAGFEDCLVFDELMDKFSNDLSLCLPVFSRLRIPDDHAISDLSMYNYIEMRAHVNSSWFIFQKNMERFLHAIMPSTFIPLYTMVTFSRIRYHEAVQRWHWQKKVINKGLFFLGSLIAISSTYLLIHYMSPRSFLRLRRPWNWIAHFRNTTCFPAKAVDSLEQISNLISR
[1]
  Recombinant kyn-3-OHase activity: about 10 nmol/h·mg protein

B2: positive clone: cDNA clone encoding rat kyn-3-OHase, a deduced protein of 478 amino acid residues, expressed in Xenopus oocytes (protein)
chain: MASSDTEGKRVVVIGGGLVGALNACFLAKRNFQVDVYEAREDIRVANFMRGRSINLALSYRGRQALKAVGLEDQIVSKGVPMKARMIHSLSGKKSAIPYGNKSQYILSISREKLNKDLLTAVESYPNAKVHFGHKLSKCCPEEGILTMLGPNKVPRDITCDLIVGCDGAYSTVRAHLMKKPRFDYSQQYIPHGYMELTIPPKNGEYAMEPNCLHIWPRNAFMMIALPNMDKSFTCTLFMSFEEFEKLPTHSDVLDFFQKNFPDAIPLMGEQALMRDFFLLPAQPMISVKCSPFHLKSRCVLMGDAAHAIVPFFGQGMNAGFEDCLVFDELMDKFNNDLSVCLPEFSRFRIPDDHAISDLSMYNYIEMRAHVNSRWFLFQRLLDKFLHALMPSTFIPLYTMVAFTRIRYHEAVLRWHWQKKVINRGLFVLGSLVAIGSAYILVHHLSPRPLELLRSAWTGTSGHWNRSADISPRVPWSH
[2]; 5 ng cRNA/oocyte, 100 mM of L-kyn
  kyn-3-OHase activity, cRNA dose-response: 35.7 nmoles/h/mg protein
[2]; [5]
  activity vs that induced by injection of total rat kidney poly(A)+ RNA: about 400 fold
  kyn-3-OHase activity, single positive clone: 3747 pmoles/h/mg protein

B3: kyn-3-OHase: kyn-3-OHase isolated from the mitochondrial outer membrane of rat liver, molecular weight of 200,000 Da (protein)
chain: B2 chain
[3]
  isoelectric point: 5.4 pH
[4]
  specific activity of purified enzyme: 140 nmol/min/mg
